According to the RNAGym collection of RNA variant scans (doi:10.7554/elife.80360):

B1: CPEB3 Ribozyme (parent)
chain: GGGGGCCACAGCAGAAGCGUUCACGUCGCGGCCCCUGUCAGAUUCUGGUGAAUCUGCGAAUUCUGCUGU

Variants of: B1
Test: self-cleavage, relative activity (ratio to wild type); higher = more cleavage; co-transcriptional

| Variant | self-cleavage |
| --- | --- |
| GGGGGCCAGAGCAGAAGCGUUCACGUCGCGGCCCCUGUCAGAUUCUGGUGAAUCUGCGAGUUCUGCUGU | 0.952 |
| GGGGGCCAAAGCAGAAGCGCUCACGUCGCGGCCCCUGUCAGAUUCUGGUGAAUCUGCGAAUUCUGCUGU | 0.197 |
| GGGGGCCAGAGCAGAAGCGUUCCCGUCGCGGCCCCUGUCAGAUUCUGGUGAAUCUGCGAAUUCUGCUGU | 0.993 |
| GGGGGCCAAAGCAGAAGCGUUCACGUCGCGACCCCUGUCAGAUUCUGGUGAAUCUGCGAAUUCUGCUGU | 1 |
| GGGGGCCAAAGCAGAAGCGUUCACGUCGCGCCCCCUGUCAGAUUCUGGUGAAUCUGCGAAUUCUGCUGU | 0.291 |
| GGGGGCCAAAGCAGAAGCGUUCACGUCGCGUCCCCUGUCAGAUUCUGGUGAAUCUGCGAAUUCUGCUGU | 0.961 |
| GGGGGCCAAAGCAGAAGCGUUCACGUCGCGGCCCCUGUCAGAUUCUGGUGAAUCUGCGAAUUCUACUGU | 0.955 |
| GGGGGCCAAAGCAGAAGCGUUCACGUCGCGGCCCCUGUCAGAUUCUGGUGAAUCUGCGAAUUCUUCUGU | 0.844 |
| GGGGGCCAAAGCAGAAGCGUUCACGUCGCGGCCCCUGUCAGAUUCUGGUGAAUCUGCGAAUGCUGCUGU | 0.943 |
| GGGGGCCAAAGCAGAAGCGUUCACGUCGCGGCCCCUGUCAGAUUCUGGUGAAUCUGCGAAUCCUGCUGU | 0.931 |
| GGGGGCCAGAGCAGAAGCGUUCACGUCGCGGCCUCUGUCAGAUUCUGGUGAAUCUGCGAAUUCUGCUGU | 1.01 |
| GGGGGCCAGAGCAGAAGCGUUCACGUCGCGGCCACUGUCAGAUUCUGGUGAAUCUGCGAAUUCUGCUGU | 0.953 |
| GGGGGCCAGAGCAAAAGCGUUCACGUCGCGGCCCCUGUCAGAUUCUGGUGAAUCUGCGAAUUCUGCUGU | 0.783 |
| GGGGGCCAGAGCAGAAGCGUUCACGUCGCGGCCCCUGUCAGAUUCUGGUGAAUCUGCGAAUUCUGAUGU | 0.831 |
| GGGGGCCAAAGCAGAAGCGUUCACGUCGCGGCCCCUUUCAGAUUCUGGUGAAUCUGCGAAUUCUGCUGU | 0.401 |
| GGGGGCCAAAGCAGAAGCGUUCACGUCGCGGCCCCUGGCAGAUUCUGGUGAAUCUGCGAAUUCUGCUGU | 0.152 |
| GGGGGCCAAAGCAGAAGCGUUCACGUCGCGGCCCCUGACAGAUUCUGGUGAAUCUGCGAAUUCUGCUGU | 0.989 |
| GGGGGCCAGAGCUGAAGCGUUCACGUCGCGGCCCCUGUCAGAUUCUGGUGAAUCUGCGAAUUCUGCUGU | 0.837 |
| GGGGGCCAGAGCAGAAGCGUUAACGUCGCGGCCCCUGUCAGAUUCUGGUGAAUCUGCGAAUUCUGCUGU | 0.189 |
| GGGGGCCAGAGCAGAAGCGUUCACGUCGCGGCCCCUGUCAGAUUUUGGUGAAUCUGCGAAUUCUGCUGU | 0.998 |
| GGGGGCCAGAGCAGAAGCGUUCACGUCGCGGCCCCUGUCAGAUUAUGGUGAAUCUGCGAAUUCUGCUGU | 1.01 |
| GGGGGCCAAAGCAGAAGCGUUCACGUCGCGGCCCCUGUCAGAUUCUGGGGAAUCUGCGAAUUCUGCUGU | 1.04 |
| GGGGGCCAAAGCAGAAGCGUUCACGUCGCGGCCCCUGUCAGAUUCUGGAGAAUCUGCGAAUUCUGCUGU | 1.03 |
| GGGGGCCAGAGCAGAAUCGUUCACGUCGCGGCCCCUGUCAGAUUCUGGUGAAUCUGCGAAUUCUGCUGU | 0.68 |
| GGGGGCCAGAGCAGAAACGUUCACGUCGCGGCCCCUGUCAGAUUCUGGUGAAUCUGCGAAUUCUGCUGU | 0.66 |
| GGGGGCCAAAGCAGAAGCGUUCACGUCGCGGCCCCUGUCAGAUUCUGGUGAAUCUCCGAAUUCUGCUGU | 0.921 |

| Variant | self-cleavage |
| --- | --- |
| GGGGGCCAAAGCAGAAGCGUUCACGUCGCGGCCCCUGUCAGAUUCUGGUGAAUCUUCGAAUUCUGCUGU | 0.98 |
| GGGGGCCAAAGCAGAAGCGUUCACGUCGCGGCCCCUGUCAGACUCUGGUGAAUCUGCGAAUUCUGCUGU | 1.03 |
| GGGGGCCAGAGCAGAAGCCUUCACGUCGCGGCCCCUGUCAGAUUCUGGUGAAUCUGCGAAUUCUGCUGU | 0.133 |
| GGGGGCCAGAGCAGAAGCUUUCACGUCGCGGCCCCUGUCAGAUUCUGGUGAAUCUGCGAAUUCUGCUGU | 0.643 |
| GGGGGCCAAAGCAUAAGCGUUCACGUCGCGGCCCCUGUCAGAUUCUGGUGAAUCUGCGAAUUCUGCUGU | 0.767 |
| GGGGGCCAAAGCAAAAGCGUUCACGUCGCGGCCCCUGUCAGAUUCUGGUGAAUCUGCGAAUUCUGCUGU | 0.725 |
| GGGGGCCAGAGCAGAAGCGUUCAGGUCGCGGCCCCUGUCAGAUUCUGGUGAAUCUGCGAAUUCUGCUGU | 0.608 |
| GGGGGCCAGAGCAGAAGCGUUCACGUCGCGGCACCUGUCAGAUUCUGGUGAAUCUGCGAAUUCUGCUGU | 1.03 |
| GGGGGCCAAAGCAGAAGCGUUCACGUCACGGCCCCUGUCAGAUUCUGGUGAAUCUGCGAAUUCUGCUGU | 0.265 |
| GGGGGCCAGAGCAGAAGCGUUCACGUCGCGGCCCCUGUCAGAUUCUGGUGAAUCUGCGAAUUGUGCUGU | 0.799 |
| GGGGGCCAAAGCAGAAGCGUUCACGUCGCGGCCCCUGUCAGAUUCUGGUGAAGCUGCGAAUUCUGCUGU | 1 |
| GGGGGCCAGAGCAGAAGCGUUCACGUCGCGGCCCCUGUCAGAUUCUGGUGAAUCUGCGCAUUCUGCUGU | 0.896 |
| GGGGGCCAGAGCAGAAGCGUUCACGUCGCGGCCCCUGUCCGAUUCUGGUGAAUCUGCGAAUUCUGCUGU | 0.715 |
| GGGGGCCAGAGCAGAAGCGUUCACGUCGCGGCCCCUGUCUGAUUCUGGUGAAUCUGCGAAUUCUGCUGU | 0.827 |
| GGGGGCCAAAGCAGAAGCGUUCACGUCGCGGCCCCUGUCAGAUGCUGGUGAAUCUGCGAAUUCUGCUGU | 1.01 |
| GGGGGCCAGAGCAGAAGCGUUCACGUCGCGGCCCAUGUCAGAUUCUGGUGAAUCUGCGAAUUCUGCUGU | 0.267 |
| GGGGGCCAAAGCAGAAGCGUUCACGUCGCGGCCCCUGUCAGAUUCUGGUGAAUCUGCGAAUUCUGCAGU | 1.03 |
| GGGGGCCAAAGCAGAAGCGUUCACGUCGCGGCCCCUGUCAGAUUCUGAUGAAUCUGCGAAUUCUGCUGU | 1.01 |
| GGGGGCCAAAGCAGAAGCGUUCACGUCGCGGCCCCUGUCAGAUUCUGGUGAAUCUGCGAAUUCUGCUGA | 1.06 |
| GGGGGCCAGAGCAGAAGCGUUCACGUCGCGGCCCCUGUCAGAUUCUGGUGAUUCUGCGAAUUCUGCUGU | 1.04 |
| GGGGGCCAGAGCAGAAGCGUUCACGUCGCGGCCCCUGUCAGAUUCUGGUGACUCUGCGAAUUCUGCUGU | 0.985 |
| GGGGGCCAGAGCAGAAGCGUUCACGUCGCGGCCCCUGUCAGAUUCUGGUGAAUCUGCGAAUUCUGCUGU | 1.01 |
| GGGGGCCAAAGCAGAAGCGUUCACGUCGCGGCCCCAGUCAGAUUCUGGUGAAUCUGCGAAUUCUGCUGU | 0.315 |
| GGGGGCCAGAGCAGAAGCGUUCACGUCGCGGCCCCUGUCAGAUUCUGGUGAAUCUGUGAAUUCUGCUGU | 0.356 |
| GGGGGCCAAAGCAGAAGCGUUCACGUCGCGGCCCCUGUCAGAUUCUGGUGAAUCGGCGAAUUCUGCUGU | 0.874 |
| GGGGGCCAAAGCAGAAGCGUUCACGUCGCGGCCCCUGUCAGAUUCUGGUGAAUCCGCGAAUUCUGCUGU | 0.982 |

| Variant | self-cleavage |
| --- | --- |
| GGGGGCCAAAGCAGAAGCGUUCACGUCGCGGCCCCUGUCAGAUUCUGGUCAAUCUGCGAAUUCUGCUGU | 1.03 |
| GGGGGCCAAAGCAGAAGCGUUCACGUCGCGGCCCCUGUCAGAUUCUGGUUAAUCUGCGAAUUCUGCUGU | 0.999 |
| GGGGGCCAAAGCAGAAGCGUUCACGUCGCGGCCCCUGUCAGAUUCUGGUAAAUCUGCGAAUUCUGCUGU | 1.02 |
| GGGGGCCAAAGCAGAAGCGUUCACGUCGCGGCCCCUGUCAGAUUCUGGUGAAUCUGCGAAUUCUGUUGU | 1.02 |
| GGGGGCCAGACCAGAAGCGUUCACGUCGCGGCCCCUGUCAGAUUCUGGUGAAUCUGCGAAUUCUGCUGU | 0.721 |
| GGGGGCCAGAUCAGAAGCGUUCACGUCGCGGCCCCUGUCAGAUUCUGGUGAAUCUGCGAAUUCUGCUGU | 0.922 |
| GGGGGCCAAAGCAGAAGCGUACACGUCGCGGCCCCUGUCAGAUUCUGGUGAAUCUGCGAAUUCUGCUGU | 1.01 |
| GGGGGCCAGAGCAGAAGCGUUCACGUCGCGGCCCCUGUCAGAUUCUGGUGAAUGUGCGAAUUCUGCUGU | 0.926 |
| GGGGGCCAAAGCAGAAGCGUUCACGGCGCGGCCCCUGUCAGAUUCUGGUGAAUCUGCGAAUUCUGCUGU | 0.983 |
| GGGGGCCAAAGCAGAACCGUUCACGUCGCGGCCCCUGUCAGAUUCUGGUGAAUCUGCGAAUUCUGCUGU | 0.204 |
| GGGGGCCAGAGCAGAAGUGUUCACGUCGCGGCCCCUGUCAGAUUCUGGUGAAUCUGCGAAUUCUGCUGU | 0.935 |
| GGGGGCCAGAGCAGACGCGUUCACGUCGCGGCCCCUGUCAGAUUCUGGUGAAUCUGCGAAUUCUGCUGU | 0.548 |
| GGGGGCCAGAGCAGAAGCGUUCACGUGGCGGCCCCUGUCAGAUUCUGGUGAAUCUGCGAAUUCUGCUGU | 0.246 |
| GGGGGCCAGAGCAGAAGCGUUCACGUAGCGGCCCCUGUCAGAUUCUGGUGAAUCUGCGAAUUCUGCUGU | 0.754 |
| GGGGGCCAAAGCAGAAGCGUUCACCUCGCGGCCCCUGUCAGAUUCUGGUGAAUCUGCGAAUUCUGCUGU | 0.228 |
| GGGGGCCAGAGCAGAAGCGUUCACGUCGCGGCCCCUGUCAGAUUCUGGUGCAUCUGCGAAUUCUGCUGU | 0.674 |
| GGGGGCCAAAGCAGAAGCGUUCACGUCGCGGCCCCUGUCAGAUUCUGGUGAAUCUGCCAAUUCUGCUGU | 1.04 |
| GGGGGCCAAAGCAGAAGCGUUCACGUCGCGGCCCCUGUCAGAUUCUGGUGAAUCUGCUAAUUCUGCUGU | 1.04 |
| GGGGGCCAAAGCAGAAGCGUUCACGUCGCGGCCCCUGUCAGAUUCUCGUGAAUCUGCGAAUUCUGCUGU | 1 |
| GGGGGCCAGAGCAGAAGCGUUCACGUCACGGCCCCUGUCAGAUUCUGGUGAAUCUGCGAAUUCUGCUGU | 0.264 |
| GGGGGCCAAAGCAGAAGCGUUCACGUCGCGGCCCCUGUCAGAUUCGGGUGAAUCUGCGAAUUCUGCUGU | 1.04 |
| GGGGGCCAAAGCAGAAGCGUUCACGUCGCGGCCCCUGUCAUAUUCUGGUGAAUCUGCGAAUUCUGCUGU | 0.955 |
| GGGGGCCAGAGCAGGAGCGUUCACGUCGCGGCCCCUGUCAGAUUCUGGUGAAUCUGCGAAUUCUGCUGU | 0.988 |
| GGGGGCCAGAGCAGUAGCGUUCACGUCGCGGCCCCUGUCAGAUUCUGGUGAAUCUGCGAAUUCUGCUGU | 0.911 |
| GGGGGCCAAAGCAGAAGCGUUCACGUCGCGGCCCCUGUCAGAUUCUGGUGAAUCUGCGAAUUGUGCUGU | 0.806 |
| GGGGGCCAAAGCAGAAGCGUUCACGUCGCGGCCCCUGUCAGAUUCUGGUGAAUCUGCGAAUUAUGCUGU | 0.953 |
